Test [1] deals with T1, recombinant human MERTK (human, UniProt Q12866 21-505, limits assumed).
T1 construct: Analyte in solution in biolayer interferometry; also called hMer
T1 sequence: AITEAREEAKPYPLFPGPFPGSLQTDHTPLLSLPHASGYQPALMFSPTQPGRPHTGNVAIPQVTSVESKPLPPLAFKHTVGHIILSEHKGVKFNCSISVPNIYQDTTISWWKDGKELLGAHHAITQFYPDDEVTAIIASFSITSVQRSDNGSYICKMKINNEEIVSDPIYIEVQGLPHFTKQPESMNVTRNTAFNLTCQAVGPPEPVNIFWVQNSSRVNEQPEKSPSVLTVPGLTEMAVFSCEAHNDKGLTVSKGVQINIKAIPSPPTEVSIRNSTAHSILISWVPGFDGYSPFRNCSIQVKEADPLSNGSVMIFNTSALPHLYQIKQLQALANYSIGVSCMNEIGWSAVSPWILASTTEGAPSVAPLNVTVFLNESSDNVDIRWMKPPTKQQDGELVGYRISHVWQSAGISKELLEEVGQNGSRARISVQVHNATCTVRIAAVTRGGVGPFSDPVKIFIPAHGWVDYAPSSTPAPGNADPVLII
The test can be described thus: biolayer interferometry, M6 loaded on AMQ sensor at 1 ug/mL, hMer in solution at 0.3125 nM, local 1:1 fit. The method, then: (§1) FIG. 11: M6 binds to MERTK with high affinity. M6 binds to human MERTK with high affinity. A diagram showing antibody binding kinetics for M6 (Mer-M6) against human MERTK (hMer) using biolayer interferometry. Purified M6 was loaded on an AMQ sensor at a concentration of 1 microgram/mL to test binding against analytes in solution. All analytes were prepared at 5 nM with a 2-fold dilution series for a total of 7 concentrations. Kinetic fits were calculated using a 1:1 model, with Local fits for each concentration as well as an overall Global fit.

Test [2] addresses T1, recombinant human MERTK. The test can be described thus: biolayer interferometry, M6 loaded on AMQ sensor at 1 ug/mL, hMer in solution at 0.625 nM, local 1:1 fit. The method, then: as §1
In general terms: BLI is a label-free optical method that tracks binding on a fibre tip over time.

Test [3] deals with T1, recombinant human MERTK. Put plainly: biolayer interferometry, M6 loaded on AMQ sensor at 1 ug/mL, hMer in solution at 1.25 nM, local 1:1 fit. How it is done:
as §1

Test [4] addresses T1, recombinant human MERTK. Put plainly: biolayer interferometry, M6 loaded on AMQ sensor at 1 ug/mL, hMer in solution at 5 to 0.0781 nM, global 1:1 fit. How it is done:
as §1

The target of test [5] is T1, recombinant human MERTK. Put plainly: biolayer interferometry, M6 loaded on AMQ sensor at 1 ug/mL, hMer in solution at 2.5 nM, local 1:1 fit. How it is done:
as §1

Test [6] deals with T1, recombinant human MERTK. The test can be described thus: biolayer interferometry, M6 loaded on AMQ sensor at 1 ug/mL, hMer in solution at 0.1563 nM, local 1:1 fit. The method, then:
as §1

For test [7], the target named is T1, recombinant human MERTK. Put plainly: biolayer interferometry, M6 loaded on AMQ sensor at 1 ug/mL, hMer in solution at 0.0781 nM, local 1:1 fit. How it is done:
as §1

Test [8] deals with T1, recombinant human MERTK. Put plainly: biolayer interferometry, M6 loaded on AMQ sensor at 1 ug/mL, hMer in solution at 5 nM, local 1:1 fit. How it is done:
as §1

The target of test [9] is T1, recombinant human MERTK. Put plainly: biolayer interferometry, M6 loaded on AMQ sensor, hMer analyte from 5 nM in 2-fold dilutions, 1:1 model, global fit. The method, then:
as §1

B1: monoclonal antibody M6 (antibody, V domains shown)
VH: QVKLEESGPELKKPGETVKISCKASGYTFTNYGMNWVKQAPGKGLKWMGWINTYTGEPTYADDFKGRFVFSLETSASTAYLQINNLKNEDMATYFCARKSTVVSRYFDVWGAGTTVTVSS
VL: DIVLTQTHKFMSTSVGDRVSITCKASQDVGDAVTWCQQKPGQPPKLLIYWASTRHTGVPDRFTGSGSGTDFTLTINNVQSEDLADYFCQQYRSYPLTFGAGTKLELKR
notes: Mouse hybridoma monoclonal antibody; Hybridoma supernatant was used in the ELISA screen, purified antibody in biolayer interferometry; also called Mer-M6
A word on the Kd: it is the free concentration of one partner at which half of the binding sites on the other are occupied at equilibrium, for simple one-to-one binding. The term koff denotes the first-order rate constant of dissociation. A word on the kon: it is the rate constant with which the complex forms. For the molecule B1, the Kd with recombinant human MERTK [1] was 0.00312 pM; in the test with recombinant human MERTK [2] it was 0.0131 pM; with recombinant human MERTK [3], 49.8 pM; with recombinant human MERTK [5], 2.09 pM; with recombinant human MERTK [6] it was 0.0652 pM; with recombinant human MERTK [7] it was 0.823 pM. In addition, the Kd came to 0.634 pM in the test with recombinant human MERTK [8] and 4.6 pM with recombinant human MERTK [9]. For the same molecule, the koff in the test with recombinant human MERTK [1] amounted to 3.3e-08 s⁻¹; with recombinant human MERTK [2], 7.27e-08 s⁻¹; with recombinant human MERTK [3], 0.000156 s⁻¹; in the test with recombinant human MERTK [4], 9.55e-06 s⁻¹; in the test with recombinant human MERTK [5], 4.46e-06 s⁻¹; with recombinant human MERTK [6], 9.22e-07 s⁻¹. Besides, the koff with recombinant human MERTK [7] stood at 2.49e-05 s⁻¹; with recombinant human MERTK [8], 1.5e-06 s⁻¹. Besides, the kon with recombinant human MERTK [1] turned out to be 1.06e+07 M⁻¹ s⁻¹; with recombinant human MERTK [2] it was 5.57e+06 M⁻¹ s⁻¹; in the test with recombinant human MERTK [3], 3.12e+06 M⁻¹ s⁻¹; with recombinant human MERTK [4], 2.07e+06 M⁻¹ s⁻¹; with recombinant human MERTK [5] it was 2.13e+06 M⁻¹ s⁻¹; in the test with recombinant human MERTK [6], 1.41e+07 M⁻¹ s⁻¹. The kon in the test with recombinant human MERTK [7] was 3.03e+07 M⁻¹ s⁻¹; with recombinant human MERTK [8], 2.37e+06 M⁻¹ s⁻¹.
